According to the supplement of paper PMC9732359:
± gives the uncertainty stated by the source.

Experiment: protein stability index of a GFP-peptide fusion (yeast GPS) (PSI 1-4); higher = more stable; sorted into four equal gates, so the index is relative within each strain
How it was run: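 For each peptide, the protein stability index sums the read frequency in every gate after multiplying it by the gate number. Read frequencies came from plasmids that were PCR-amplified from each gate and Illumina-sequenced, with reads assigned to strains by barcodes. The gates were four equal bins of GFP/Cherry fluorescence ratio applied to mid-log yeast in leucine-free medium carrying a pooled library of tiled 17-residue yeast protein peptides fused downstream of GFP on a Cherry-expressing plasmid.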

Sequence | protein stability index (doa10∆) | protein stability index (pdr5∆) | protein stability index (san1∆) | protein stability index (ubr1∆)
ARVKAFDRHCNMVLENV [SMD2] | 1.53 ± 0.091 | 2.3 ± 0.087 | 1.39 ± 0.21 | 1.87 ± 0.085
LNDLVESSFIEIDDTEA [BRR2] | 2.9 ± 0.037 | 2 ± 0.043 | 2.13 ± 0.069 | 2.25 ± 0.029
QITLTFISELCSIEPIA [YML103C/NUP188] | 1.27 ± 0.035 | 1.46 ± 0.052 | 1.48 ± 0.085 | 1.82 ± 0.055
NKNLPFVWLSSEENIGS [SWI1] | 2.9 ± 0.067 | 1.84 ± 0.072 | 1.59 ± 0.063 | 1.74 ± 0.053
AQKCGWTIPHKKWNDLK [SIR2] | 3.25 ± 0.057 | 3.26 ± 0.086 | 3.26 ± 0.058 | 2.94 ± 0.038
SVDMSALKDPQTDADRV [RIP1] | 3.27 ± 0.079 | 3.68 ± 0.23 | 3.2 ± 0.23 | 3.56 ± 0.15
LELIGVLSINPDMYERK [MED7] | 2.73 ± 0.077 | 2.98 ± 0.086 | 2.89 ± 0.053 | 2.73 ± 0.061
GKRQVLLRPSSKVIIKF [RPS22B] | 2.83 ± 0.1 | 2.21 ± 0.055 | 3.25 ± 0.057 | 2.15 ± 0.049
VDVELITSINVENDTFI [FAS2] | 3.4 ± 0.1 | 3.37 ± 0.069 | 3.09 ± 0.086 | 3.32 ± 0.072
TTYSVDDYYKEIIGGGS [ISW2] | 3.32 ± 0.1 | 3.02 ± 0.13 | 3.19 ± 0.088 | 3.33 ± 0.13
IAASYHYPEIEDLVDRI [RPP0] |  | 1.89 ± 0.16 |  | 
LGLAKSVHHARVLITQR [RPS9A] | 2.34 ± 0.12 | 2.86 ± 0.15 | 2.61 ± 0.17 | 
LFKRDCNQMENLLESIT [YCS4] |  | 2.17 ± 0.12 |  | 2.38 ± 0.22
GNAKESKALLREISNFS [SRP72] | 2.97 ± 0.17 | 2.94 ± 0.13 | 2.7 ± 0.14 | 3.01 ± 0.15
HENYIQDDDFPLDDAGT [MCD1] | 2.95 ± 0.054 | 2.98 ± 0.051 | 2.99 ± 0.041 | 3 ± 0.046
MSEEGPQVKIREASKDN [RPB3] | 3.18 ± 0.13 | 2.44 ± 0.039 | 2.94 ± 0.096 | 3.08 ± 0.083
QDVAAKCKEVGITAVHV [RPS14B] | 2.44 ± 0.059 | 2.7 ± 0.068 | 2.8 ± 0.065 | 2.18 ± 0.037
LKNEGIDLDHKRFLILQ [SMC4] | 2.21 ± 0.22 | 2.35 ± 0.13 | 2.15 ± 0.12 | 2.84 ± 0.068
HFFQIDGFNKTFHDELN [YML103C/NUP188] | 1.67 ± 0.07 | 2.04 ± 0.12 | 2.67 ± 0.14 | 2.85 ± 0.091
EEPAKEEAPAPTPAASA [FAS2] | 2.75 ± 0.14 | 2.82 ± 0.12 | 2.69 ± 0.26 | 2.98 ± 0.14
ASTVAKTAPIQESFVPN [YOR098C/NUP1] | 2.97 ± 0.16 | 2.83 ± 0.11 | 2.94 ± 0.3 | 3.21 ± 0.061
SELDSNDFFIIYYTPAF [YJL039C/NUP192] | 1.39 ± 0.065 | 1.51 ± 0.041 | 1.63 ± 0.075 | 1.55 ± 0.044

Sequence | protein stability index (doa10∆) | protein stability index (pdr5∆) | protein stability index (san1∆) | protein stability index (ubr1∆)
KLHVAAKLPGHKSLIRS [YGL100W/SEH1] | 1.83 ± 0.11 | 2.03 ± 0.13 |  | 2.33 ± 0.094
TSRKALEEVSLKWIDTA [RPL3] | 1.67 ± 0.098 | 1.89 ± 0.094 | 1.82 ± 0.12 | 1.9 ± 0.088
FPSSETTSLNPIQSKVF [BRR2] | 2.2 ± 0.093 | 2.52 ± 0.082 | 1.79 ± 0.14 | 2.33 ± 0.11
RGIPRISTLFQRDRHTL [PRP8] | 2.57 ± 0.095 | 2.66 ± 0.16 | 2.08 ± 0.079 | 2.68 ± 0.085
LNITTVFSHAQTAVTCE [RPS27A] | 2.38 ± 0.043 | 2.21 ± 0.047 | 2.08 ± 0.063 | 2.09 ± 0.052
YDDFIYLSDLKQFFQMT [PCI8] | 2.5 ± 0.075 | 2.89 ± 0.073 | 2.61 ± 0.084 | 2.87 ± 0.051
PNELSQILTVDPKTSLR [RPC82] | 2.2 ± 0.069 | 1.91 ± 0.059 | 2.33 ± 0.067 | 2.45 ± 0.053
TDDADDHINWEHIKQDY [NSL1] | 3.4 ± 0.1 | 3.4 ± 0.12 | 3.27 ± 0.13 | 3.4 ± 0.082
AGVLNGTLEYGTCFGGS [RET1] | 2.97 ± 0.051 | 2.91 ± 0.057 | 2.99 ± 0.051 | 3.08 ± 0.043
TASFIPLDTIETELPTL [SMC1] | 2.58 ± 0.066 | 2.65 ± 0.078 | 2.56 ± 0.066 | 2.53 ± 0.051
REKRDRTHFKRMRFPPF [PRP8] | 2.27 ± 0.05 | 2.64 ± 0.069 | 2.22 ± 0.098 | 2.2 ± 0.047
IAEVGNKRWKVDIGGKQ [RRP4] | 3.62 ± 0.19 | 3.32 ± 0.14 | 3.22 ± 0.11 | 3.36 ± 0.061
APTPAAPGASVPATAAP [SWI1] | 2.93 ± 0.068 | 3.05 ± 0.054 | 3.11 ± 0.042 | 3.21 ± 0.05
ITKEVTQVNILKENNAI [YIL149C/MLP2] | 2.91 ± 0.057 | 3.14 ± 0.065 | 2.87 ± 0.085 | 3.17 ± 0.044
HNVFSKEQTIQLPSKFT [RPN14] | 2.41 ± 0.11 | 2.79 ± 0.085 | 2.43 ± 0.12 | 2.64 ± 0.099
DWESDLHIHLNQILQTE [YDL116W/NUP84] | 2.69 ± 0.1 | 3.07 ± 0.087 | 2.77 ± 0.092 | 2.81 ± 0.15
KPHGLAARVDIGQIIFS [RPL10] | 2.31 ± 0.058 | 2.13 ± 0.037 | 1.72 ± 0.082 | 2.15 ± 0.036
CTFSMEPYHFISNYNTK [SRB8] | 1.99 ± 0.083 | 2.09 ± 0.05 | 1.5 ± 0.079 | 1.71 ± 0.052
PTTMVTNQKDTNDHVDK [ISW2] | 1.96 ± 0.062 | 2.03 ± 0.064 | 1.67 ± 0.1 | 1.75 ± 0.055
LAHVDQIVDIRNKRAVQ [YJL039C/NUP192] | 2.35 ± 0.13 | 2.55 ± 0.12 | 2.76 ± 0.12 | 2.71 ± 0.13
QWTGGRGGGHHSFEDAH [FAS1] | 3.21 ± 0.24 | 3.47 ± 0.2 |  | 
